Reference: the RNAGym collection of RNA variant scans (doi:10.7554/elife.80360)

B1: HDV Ribozyme (parent)
chain: GGCCGGCAUGGUCCCAGCCUCCUCGCUGGCGCCGGCUGGGCAACAUUCCGAGGGGACCGUCCCCUCGGUAAUGGCGAAUGGGACCCA

Variants of: B1
Experiment: self-cleavage, relative activity (ratio to wild type); higher = more cleavage; co-transcriptional

Row | Variant | self-cleavage
1 | GGCCGGCAUGGUCCCAGCCUCCUCGCUGUCGCCGGCUGGGCAACAUUCCGAGGGGGCCGUCCCCUCGGUAAUGGCGAAUGGGACCCA | 0.227
2 | GGCCGGCAUGGUCCCAGCCUCCUCGCUGUCGCCGGCUGGGCAACAUUCCGAGGGGCCCGUCCCCUCGGUAAUGGCGAAUGGGACCCA | 0.202
3 | GGCCGGCAUGGUCCCAGCCUCCUCGCUGCCGCCGGCUGGGCAACAUUCCGAGGGGACAGUCCCCUCGGUAAUGGCGAAUGGGACCCA | 0.0755
4 | GGCCGGCAUGGUCCCAGCCUCCUCGCUGCCGCCGGCUGGGCAACAUUCCGAGGAGACCGUCCCCUCGGUAAUGGCGAAUGGGACCCA | 0.0773
5 | GGCCGGCAUGGUCCCAGCCUCCUCGCUGCCGCCGGCUGGGCAACAUUCCGAGGUGACCGUCCCCUCGGUAAUGGCGAAUGGGACCCA | 0.204
6 | GGCCGGCAUGGUCCCAGCCUCCUCGCUGUCGCCGGCUGGGCAACAUUCCGAGGGGACCGUCCCCUCGGUAAUGGCGAAUGGGCCCCA | 0.0692
7 | GGCCGGCAUGGUCCCAGCCUCCUCGCUGCCGCCGGCUGGGCAACAUUCCGAGGGGACCGUCCCCUCGGUAAUAGCGAAUGGGACCCA | 0.0707
8 | GGCCGGCAUGGUCCCAGCCUCCUCGCUGCCGCCGGCUGGGCAACAUUCCGAGGGGACCGUCCCCUCGGUAAUUGCGAAUGGGACCCA | 0.0583
9 | GGCCGGCAUGGUCCCAGCCUCCUCGCUGCCGCCGGCUGGGCAACAUUCCGAGGGGACCGUCCCCUCGGUAAUCGCGAAUGGGACCCA | 0.095
10 | GGCCGGCAUGGUCCCAGCCUCCUCGCUGCCGCCGACUGGGCAACAUUCCGAGGGGACCGUCCCCUCGGUAAUGGCGAAUGGGACCCA | 0.104
11 | GGCCGGCAUGGUCCCAGCCUCCUCGCUGCCGCCGGCUGGGCAACAUUCCGAGGGGACCGUCCGCUCGGUAAUGGCGAAUGGGACCCA | 0.0489
12 | GGCCGGCAUGGUCCCAGCCUCCUCGCUGCCGCCGGCUGGGCAACAUUCCGAGGGGACCGUCCUCUCGGUAAUGGCGAAUGGGACCCA | 0
13 | GGCCGGCAUGGUCCCAGCCUCCUCGCUGCCGCCGGCUGGGCAACAUUCCGAGGGGACCGUCCACUCGGUAAUGGCGAAUGGGACCCA | 0.117
14 | GGCCGGCAUGGUCCCAGCCUCCUCGCUGCCGCCGGCUGGGCAACAUUCCGAGGGGACCGUCCCCUCGGUAAUGGCGAAGGGGACCCA | 0
15 | GGCCGGCAUGGUCCCAGCCUCCUCGCUGCCGCCGGCUGGGCAACAUUCCGAGGGGACCGUCCCCUCGGUAAUGGCGAAAGGGACCCA | 0.147
16 | GGCCGGCAUGGUCCCAGCCUCCUCGCUGCCGCCGGCUGGGCAACAUUCCGAGGGGACCGGCCCCUCGGUAAUGGCGAAUGGGACCCA | 0.199
17 | GGCCGGCAUGGUCCCAGCCUCCUCGCUGCCGCCGGCUGGGCAACAUUCCGAGGGGACCGCCCCCUCGGUAAUGGCGAAUGGGACCCA | 0.0449
18 | GGCCGGCAUGGUCCCAGCCUCCUCGCUGCCGCCGGCUGGGCAACAUUCCGAGGGGACCGUCCCCUCGGUAAUGGCGAAUGGGAUCCA | 0.032
19 | GGCCGGCAUGGUCCCAGCCUCCUCGCUGCCGCCGGCUGGGCAACAUUCCGAGGGGACCGUCCCCUCGGUAAUGGCGAAUGGGAACCA | 0.0831
20 | GGCCGGCAUGGUCCCAGCCUCCUCGCUGCCGCCGGCUGGGCAACAUUCCGAGGGGACCGUCCCCUCGGUAAUGGCGAAUGGGAGCCA | 0.208
21 | GGCCGGCAUGGUCCCAGCCUCCUCGCUGCCGCCGGCUGGGCAACAUUCCGACGGGACCGUCCCCUCGGUAAUGGCGAAUGGGACCCA | 0.208
22 | GGCCGGCAUGGUCCCAGCCUCCUCGCUGUCGCCGGCUGGGCCACAUUCCGAGGGGACCGUCCCCUCGGUAAUGGCGAAUGGGACCCA | 0.125

Row | Variant | self-cleavage
23 | GGCCGGCAUGGUCCCAGCCUCCUCGCUGCCGCCGGCUGGGCAACAUUCCGAGGGGACCGUCCCCUCGGUAAUGGCGAAUGGGACCUA | 0.0739
24 | GGCCGGCAUGGUCCCAGCCUCCUCGCUGCCGCCGGCUGGGCAACAUUCCGAGGGGACCGUCCCCUCGGUAAUGGCGAAUGGGACCAA | 0.0519
25 | GGCCGGCAUGGUCCCAGCCUCCUCGCUGCCGCCGGCUGGGCAACAUUCCGAGGGGACCGUCGCCUCGGUAAUGGCGAAUGGGACCCA | 0.155
26 | GGCCGGCAUGGUCCCAGCCUCCUCGCUGCCGCCGGCUAGGCAACAUUCCGAGGGGACCGUCCCCUCGGUAAUGGCGAAUGGGACCCA | 0
27 | GGCCGGCAUGGUCCCAGCCUCCUCGCUGCCGCCGGCUGGGCAACAUUCCGAGGGGACCGUCCCCUCGGUAAUGGCGAAUGAGACCCA | 0.0639
28 | GGCCGGCAUGGUCCCAGCCUCCUCGCUGUCGCCGGCUGGGCAACAUUCCGAGGGGACCGUCCCCUCGGUAAUGGCGACUGGGACCCA | 0
29 | GGCCGGCAUGGUCCCAGCCUCCUCGCUGUCGCCGGCUGGGCAACAUUCCGAGGGGACCGUCCCCUCGGUAAUGGCGUAUGGGACCCA | 0.117
30 | GGCCGGCAUGGUCCCAGCCUCCUCGCUGUCGCCGGCUGGGCAACAUUCCGAGGGGACCGUCCCCUCGGUAAUGGCGCAUGGGACCCA | 0.13
31 | GGCCGGCAUGGUCCCAGCCUCCUCGCUGCCGCCCGCUGGGCAACAUUCCGAGGGGACCGUCCCCUCGGUAAUGGCGAAUGGGACCCA | 0.125
32 | GGCCGGCAUGGUCCCAGCCUCCUCGCUGCCGCCUGCUGGGCAACAUUCCGAGGGGACCGUCCCCUCGGUAAUGGCGAAUGGGACCCA | 0.181
33 | GGCCGGCAUGGUCCCAGCCUCCUCGCUGCCGCCAGCUGGGCAACAUUCCGAGGGGACCGUCCCCUCGGUAAUGGCGAAUGGGACCCA | 0
34 | GGCCGGCAUGGUCCCAGCCUCCUCGCUGCCGCCGGCUGGGCAACAUUCCGAGGGGACCGUCCCCUCGGUAAUGGCGAAUGGCACCCA | 0.0739
35 | GGCCGGCAUGGUCCCAGCCUCCUCGCUGCCGCCGGCUGGGCAACAUUCCGAGGGGACCGUCCCCCCGGUAAUGGCGAAUGGGACCCA | 0.138
36 | GGCCGGCAUGGUCCCAGCCUCCUCGCUGCCGCCGGCUGGGCAACACUCCGAGGGGACCGUCCCCUCGGUAAUGGCGAAUGGGACCCA | 0.0755
37 | GGCCGGCAUGGUCCCAGCCUCCUCGCUGCCGCCGGCUGGGCAACAUUCCGAGGGCACCGUCCCCUCGGUAAUGGCGAAUGGGACCCA | 0.0332
38 | GGCCGGCAUGGUCCCAGCCUCCUCGCUGUCGCCGGCUGGGCAACAUUCCGAGGGGACCGUCCCCUCGGUACUGGCGAAUGGGACCCA | 0.0302
39 | GGCCGGCAUGGUCCCAGCCUCCUCGCUGUCGCCGGCUGGGCAACAUUCCGAGGGGACCGUCCCCUCGGUAGUGGCGAAUGGGACCCA | 0.162
40 | GGCCGGCAUGGUCCCAGCCUCCUCGCUGCCGCCGGCUGGGCAACAUUCCUAGGGGACCGUCCCCUCGGUAAUGGCGAAUGGGACCCA | 0
41 | GGCCGGCAUGGUCCCAGCCUCCUCGCUGUCGCCGGCUGGGCAACAUUCCGGGGGGACCGUCCCCUCGGUAAUGGCGAAUGGGACCCA | 0.0692
42 | GGCCGGCAUGGUCCCAGCCUCCUCGCUGUCGCCGGCUGGGCAACAUUCCGUGGGGACCGUCCCCUCGGUAAUGGCGAAUGGGACCCA | 0.169
43 | GGCCGGCAUGGUCCCAGCCUCCUCGCUGCCGCCGGCUGGGCAACAUUCCGAGGGGAGCGUCCCCUCGGUAAUGGCGAAUGGGACCCA | 0.133
44 | GGCCGGCAUGGUCCCAGCCUCCUCGCUGCCGCCGGCUGGGCAACAUUCCGAGGGGACCGUCCCCUCGGUAAUGGCGAAUCGGACCCA | 0.0308

Row | Variant | self-cleavage
45 | GGCCGGCAUGGUCCCAGCCUCCUCGCUGCCGCCGGCUGGUCAACAUUCCGAGGGGACCGUCCCCUCGGUAAUGGCGAAUGGGACCCA | 0.0615
46 | GGCCGGCAUGGUCCCAGCCUCCUCGCUGCCGCCGGCUGGGCAACAUUCCGAGGGGACCGUCCCCUCCGUAAUGGCGAAUGGGACCCA | 0.104
47 | GGCCGGCAUGGUCCCAGCCUCCUCGCUGCCGCCGGCUGGGCAACAUUCCGAGGGGACCGUGCCCUCGGUAAUGGCGAAUGGGACCCA | 0.032
48 | GGCCGGCAUGGUCCCAGCCUCCUCGCUGCCGCCGGCUGGGCAACAUUCCGAGGGGACCGUUCCCUCGGUAAUGGCGAAUGGGACCCA | 0.119
49 | GGCCGGCAUGGUCCCAGCCUCCUCGCUGCCGCCGGCUGGGCAACAUUCCGAGUGGACCGUCCCCUCGGUAAUGGCGAAUGGGACCCA | 0.0723
50 | GGCCGGCAUGGUCCCAGCCUCCUCGCUGCCGCCGGCUGGGCAACAUUCCGAGCGGACCGUCCCCUCGGUAAUGGCGAAUGGGACCCA | 0.0462
51 | GGCCGGCAUGGUCCCAGCCUCCUCGCUGCCGCCGGCUGGGCAACAUUCCGAGAGGACCGUCCCCUCGGUAAUGGCGAAUGGGACCCA | 0.133
52 | GGCCGGCAUGGUCCCAGCCUCCUCGCUGCCGCCGGCUGGGCAACAUUCCGAGGGGACCGUCCCCUCGGUAAUGGAGAAUGGGACCCA | 0.138
53 | GGCCGGCAUGGUCCCAGCCUCCUCGCUGCCGCCGGCUGGGCAACAUUCCGAGGGGACCCUCCCCUCGGUAAUGGCGAAUGGGACCCA | 0.123
54 | GGCCGGCAUGGUCCCAGCCUCCUCGCUGCCGCCGGCUGGGCAACAUUCCGAGGGGACCGUCCCCUCGCUAAUGGCGAAUGGGACCCA | 0.0449
55 | GGCCGGCAUGGUCCCAGCCUCCUCGCUGCCGCCGGCUGGGCAACAUUCCGAGGGGACCGUCCCCUCGGUAAAGGCGAAUGGGACCCA | 0
56 | GGCCGGCAUGGUCCCAGCCUCCUCGCUGCCGCCGGCUGGGCAACAUUCCGAGGGGACCGUCCCCUCGGUAAGGGCGAAUGGGACCCA | 0.208
57 | GGCCGGCAUGGUCCCAGCCUCCUCGCUGUCGCCGGCUGGGCAACGUUCCGAGGGGACCGUCCCCUCGGUAAUGGCGAAUGGGACCCA | 0.0923
58 | GGCCGGCAUGGUCCCAGCCUCCUCGCUGUCGCCGGCUGGGCAACCUUCCGAGGGGACCGUCCCCUCGGUAAUGGCGAAUGGGACCCA | 0.113
59 | GGCCGGCAUGGUCCCAGCCUCCUCGCUGCCACCGGCUGGGCAACAUUCCGAGGGGACCGUCCCCUCGGUAAUGGCGAAUGGGACCCA | 0.0875
60 | GGCCGGCAUGGUCCCAGCCUCCUCGCUGCCGCCGGCUGCGCAACAUUCCGAGGGGACCGUCCCCUCGGUAAUGGCGAAUGGGACCCA | 0.277
61 | GGCCGGCAUGGUCCCAGCCUCCUCGCUGCCGCCGGCUGAGCAACAUUCCGAGGGGACCGUCCCCUCGGUAAUGGCGAAUGGGACCCA | 0.0583
62 | GGCCGGCAUGGUCCCAGCCUCCUCGCUGUCGCCGGCUGGGCAACAUUCCGAGGGGACCGUCCCCUCGGUGAUGGCGAAUGGGACCCA | 0.0396
63 | GGCCGGCAUGGUCCCAGCCUCCUCGCUGUCGCCGGCUGGGCAACAUUCCGAGGGGACCGUCCCCUCGGUCAUGGCGAAUGGGACCCA | 0.0791
64 | GGCCGGCAUGGUCCCAGCCUCCUCGCUGUCGCCGGCUGGGCAACAUUCCGAGGGGACCGUCCCCUCGGUUAUGGCGAAUGGGACCCA | 0.0923
